By Kd is commonly meant the free concentration of one partner at which half of the binding sites on the other are occupied at equilibrium, for simple one-to-one binding.

Where no end group is shown, it is not given here.

For assay [1], the target named is BAZ2B PHD–BRD (human, UniProt Q9UIF8 1-2168). Nature of the assay: ITC.
Assay [2] has as its target BAZ2B BRD (human, UniProt Q9UIF8 1-2168). Nature of the assay: ITC.

Chain of BAZ2B BRD (Q9UIF8 whole entry): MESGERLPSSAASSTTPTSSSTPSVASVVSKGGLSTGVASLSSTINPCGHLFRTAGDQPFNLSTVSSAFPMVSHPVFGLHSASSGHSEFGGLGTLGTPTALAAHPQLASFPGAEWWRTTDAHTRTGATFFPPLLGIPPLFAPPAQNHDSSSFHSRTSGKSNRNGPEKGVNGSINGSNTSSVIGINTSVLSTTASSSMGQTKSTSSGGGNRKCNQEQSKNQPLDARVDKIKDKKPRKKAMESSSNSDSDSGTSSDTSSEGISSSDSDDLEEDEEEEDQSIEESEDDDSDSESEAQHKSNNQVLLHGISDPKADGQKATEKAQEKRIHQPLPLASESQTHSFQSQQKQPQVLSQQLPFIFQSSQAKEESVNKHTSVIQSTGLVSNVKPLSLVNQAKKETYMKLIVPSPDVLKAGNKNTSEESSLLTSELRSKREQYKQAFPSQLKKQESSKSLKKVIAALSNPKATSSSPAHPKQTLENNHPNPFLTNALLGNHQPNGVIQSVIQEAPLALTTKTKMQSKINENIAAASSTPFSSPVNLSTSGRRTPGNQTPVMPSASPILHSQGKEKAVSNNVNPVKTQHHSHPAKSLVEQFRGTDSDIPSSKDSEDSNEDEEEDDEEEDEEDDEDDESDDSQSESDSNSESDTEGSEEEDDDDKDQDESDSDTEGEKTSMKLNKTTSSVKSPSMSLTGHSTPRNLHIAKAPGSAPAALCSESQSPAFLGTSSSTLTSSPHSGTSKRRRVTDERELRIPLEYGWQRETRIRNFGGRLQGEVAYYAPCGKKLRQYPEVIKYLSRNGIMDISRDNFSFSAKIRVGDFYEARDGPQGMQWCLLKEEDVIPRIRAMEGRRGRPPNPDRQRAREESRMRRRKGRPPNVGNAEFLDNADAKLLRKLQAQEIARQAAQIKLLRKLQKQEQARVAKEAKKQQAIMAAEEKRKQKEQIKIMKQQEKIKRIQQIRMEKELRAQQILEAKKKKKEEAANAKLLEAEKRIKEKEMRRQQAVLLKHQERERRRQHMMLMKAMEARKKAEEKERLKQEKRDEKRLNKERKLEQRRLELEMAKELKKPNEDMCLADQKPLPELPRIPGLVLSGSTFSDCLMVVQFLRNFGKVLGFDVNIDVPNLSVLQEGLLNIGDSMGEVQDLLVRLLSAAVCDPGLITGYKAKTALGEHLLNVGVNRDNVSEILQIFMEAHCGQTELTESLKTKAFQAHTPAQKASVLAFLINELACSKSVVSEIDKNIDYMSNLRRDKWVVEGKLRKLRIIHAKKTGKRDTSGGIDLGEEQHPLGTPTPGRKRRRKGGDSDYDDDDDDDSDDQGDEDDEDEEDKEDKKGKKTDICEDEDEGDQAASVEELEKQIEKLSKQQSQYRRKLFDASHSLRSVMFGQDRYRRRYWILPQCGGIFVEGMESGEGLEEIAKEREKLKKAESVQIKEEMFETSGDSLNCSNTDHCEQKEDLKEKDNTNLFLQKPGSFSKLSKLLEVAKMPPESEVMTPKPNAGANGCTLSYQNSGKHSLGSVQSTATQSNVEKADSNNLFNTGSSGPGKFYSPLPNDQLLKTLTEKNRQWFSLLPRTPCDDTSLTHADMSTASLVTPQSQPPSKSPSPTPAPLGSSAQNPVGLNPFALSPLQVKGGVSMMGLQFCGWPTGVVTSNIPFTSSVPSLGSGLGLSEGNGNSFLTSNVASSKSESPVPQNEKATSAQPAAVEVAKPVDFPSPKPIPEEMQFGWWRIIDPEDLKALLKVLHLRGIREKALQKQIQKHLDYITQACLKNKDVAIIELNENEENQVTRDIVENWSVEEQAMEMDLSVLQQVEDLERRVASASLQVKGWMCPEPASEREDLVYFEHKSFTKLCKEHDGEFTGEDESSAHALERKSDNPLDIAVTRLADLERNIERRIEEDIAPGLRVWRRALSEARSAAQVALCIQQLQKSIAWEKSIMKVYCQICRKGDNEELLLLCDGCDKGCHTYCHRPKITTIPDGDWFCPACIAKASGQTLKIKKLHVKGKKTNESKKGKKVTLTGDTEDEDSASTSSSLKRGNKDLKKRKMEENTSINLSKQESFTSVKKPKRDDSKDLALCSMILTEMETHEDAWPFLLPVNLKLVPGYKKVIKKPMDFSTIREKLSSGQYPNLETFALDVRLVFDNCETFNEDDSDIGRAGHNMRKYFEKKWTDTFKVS
Chain of BAZ2B PHD–BRD (Q9UIF8 whole entry): as above

In the case of TGGK(Ac)APRKQLA [histone H3(11–21aa)K14ac peptide], the Kd came out at 10 µM in assay [1] and 8.2 µM in assay [2].
